This is an account of results in the Human Domainome abundance scans (Beltran et al. 2025).

The labels stand for the following.
B1: Tumor protein p73, residues 487 to 549; numbered along this chain, O15350 (parent)
chain: YHADPSLVSFLTGLGCPNCIEYFTSQGLQSIYHLQNLTIEDLGALKIPEQYRMTIWRGLQDLK

± gives the uncertainty stated by the source.

In the data set the parent is B1. Description: abundance fitness (aPCA) (normalised: wild type 0, dead -1); higher = more abundant; growth selection in yeast, the domain comes from the species named. As to conditions: Homo sapiens.
On to YHADPSLVSFLTGLGCPNCIEYFTSQGLQSIYHLQNLTIEDLGALSIPEQYRMTIWRGLQDLK [K46S], for which the abundance fitness is -0.043 ± 0.033. On to YHADPSLVSFLTGLGCPNCIEYFTSQGLQSIYHLQNLTIEDLGALWIPEQYRMTIWRGLQDLK [K46W], for which the abundance fitness is -0.249 ± 0.037.

With YHADPSLVSFLTGLGCPNCIEYFTSQGLQSIYHLQNLTIEDLGALEIPEQYRMTIWRGLQDLK [K46E], the abundance fitness is -0.127 ± 0.043.

Consider YHADPSLVSFLTGLGCPNCIEYFTSQGLQSIYHLQNLTIEDLGALIIPEQYRMTIWRGLQDLK [K46I], for which the abundance fitness was -0.345 ± 0.084. YHADPSLVSFLTGLGCPNCIEYFTSQGLQSIYHLQNLTIEDLGALNIPEQYRMTIWRGLQDLK [K46N]: the abundance fitness was 0.009 ± 0.057. YHADPSLVSFLTGLGCPNCIEYFTSQGLQSIYHLQNLTIEDLGALTIPEQYRMTIWRGLQDLK [K46T]: the abundance fitness is -0.102 ± 0.048. On to YHADPSLVSFLTGLGCPNCIEYFTSQGLQSIYHLQNLTIEDLGALCIPEQYRMTIWRGLQDLK [K46C], for which the abundance fitness is -0.08 ± 0.055.

Consider YHADPSLVSFLTGLGCPNCIEYFTSQGLQSIYHLQNLTIEDLGALGIPEQYRMTIWRGLQDLK [K46G], for which the abundance fitness worked out at 0.025 ± 0.027.

Turning to YHADPSLVSFLTGLGCPNCIEYFTSQGLQSIYHLQNLTIEDLGALMIPEQYRMTIWRGLQDLK [K46M], the abundance fitness is -0.155 ± 0.057. Turning to YHADPSLVSFLTGLGCPNCIEYFTSQGLQSIYHLQNLTIEDLGALLIPEQYRMTIWRGLQDLK [K46L], the abundance fitness was -0.069 ± 0.032.

As to YHADPSLVSFLTGLGCPNCIEYFTSQGLQSIYHLQNLTIEDLGALPIPEQYRMTIWRGLQDLK [K46P], the abundance fitness was 0.01 ± 0.059. For YHADPSLVSFLTGLGCPNCIEYFTSQGLQSIYHLQNLTIEDLGALYIPEQYRMTIWRGLQDLK [K46Y] the value was -0.301 ± 0.1; for YHADPSLVSFLTGLGCPNCIEYFTSQGLQSIYHLQNLTIEDLGALRIPEQYRMTIWRGLQDLK [K46R], 0.041 ± 0.03; for YHADPSLVSFLTGLGCPNCIEYFTSQGLQSIYHLQNLTIEDLGALDIPEQYRMTIWRGLQDLK [K46D], -0.138 ± 0.076. For YHADPSLVSFLTGLGCPNCIEYFTSQGLQSIYHLQNLTIEDLGALFIPEQYRMTIWRGLQDLK [K46F] the value was -0.142 ± 0.085; for YHADPSLVSFLTGLGCPNCIEYFTSQGLQSIYHLQNLTIEDLGALVIPEQYRMTIWRGLQDLK [K46V], -0.092 ± 0.034; for YHADPSLVSFLTGLGCPNCIEYFTSQGLQSIYHLQNLTIEDLGELKIPEQYRMTIWRGLQDLK [A44E], 0.16 ± 0.055.

For YHADPSLVSFLTGLGCPNCIEYFTSQGLQSIYHLQNLTIEDLGRLKIPEQYRMTIWRGLQDLK [A44R], the abundance fitness turned out to be 0.135 ± 0.028. For YHADPSLVSFLTGLGCPNCIEYFTSQGLQSIYHLQNLTIEDLGTLKIPEQYRMTIWRGLQDLK [A44T] the value was -0.046 ± 0.063.

For YHADPSLVSFLTGLGCPNCIEYFTSQGLQSIYHLQNLTIEDLGWLKIPEQYRMTIWRGLQDLK [A44W], the abundance fitness was -0.083 ± 0.038. As for YHADPSLVSFLTGLGCPNCIEYFTSQGLQSIYHLQNLTIEDLGCLKIPEQYRMTIWRGLQDLK [A44C], the abundance fitness was 0.02 ± 0.058. Consider YHADPSLVSFLTGLGCPNCIEYFTSQGLQSIYHLQNLTIEDLGQLKIPEQYRMTIWRGLQDLK [A44Q], for which the abundance fitness came out at 0.036 ± 0.052. In the case of YHADPSLVSFLTGLGCPNCIEYFTSQGLQSIYHLQNLTIEDLGDLKIPEQYRMTIWRGLQDLK [A44D], the abundance fitness was 0.174 ± 0.085. Next, YHADPSLVSFLTGLGCPNCIEYFTSQGLQSIYHLQNLTIEDLGILKIPEQYRMTIWRGLQDLK [A44I]: -0.218 ± 0.2; YHADPSLVSFLTGLGCPNCIEYFTSQGLQSIYHLQNLTIEDLGGLKIPEQYRMTIWRGLQDLK [A44G]: 0.072 ± 0.031; YHADPSLVSFLTGLGCPNCIEYFTSQGLQSIYHLQNLTIEDLGPLKIPEQYRMTIWRGLQDLK [A44P]: -0.041 ± 0.062. For YHADPSLVSFLTGLGCPNCIEYFTSQGLQSIYHLQNLTIEDLGKLKIPEQYRMTIWRGLQDLK [A44K], the abundance fitness turned out to be 0.057 ± 0.043. On to YHADPSLVSFLTGLGCPNCIEYFTSQGLQSIYHLQNLTIEDLGNLKIPEQYRMTIWRGLQDLK [A44N], for which the abundance fitness is -0.061 ± 0.13. For YHADPSLVSFLTGLGCPNCIEYFTSQGLQSIYHLQNLTIEDLGLLKIPEQYRMTIWRGLQDLK [A44L], the abundance fitness came out at 0.06 ± 0.034. Next, YHADPSLVSFLTGLGCPNCIEYFTSQGLQSIYHLQNLTIEDLGMLKIPEQYRMTIWRGLQDLK [A44M]: 0.006 ± 0.05; YHADPSLVSFLTGLGCPNCIEYFTSQGLQSIYHLQNLTIEDLGYLKIPEQYRMTIWRGLQDLK [A44Y]: -0.007 ± 0.067.

On to YHADPSLVSFLTGLGCPNCIEYFTSQGLQSIYHLQNLTIEDLGFLKIPEQYRMTIWRGLQDLK [A44F], for which the abundance fitness is 0.011 ± 0.095. Next, YHADPSLVSFLTGLGCPNCIEYFTSQGLQSIYHLQNLTIEDLGSLKIPEQYRMTIWRGLQDLK [A44S]: 0.057 ± 0.042; YHADPSLVSFLTGLGCPNCIEYFTSQGLQSIYHLQNLTIEDLGHLKIPEQYRMTIWRGLQDLK [A44H]: -0.021 ± 0.063; YHADPSLVSFLTGLGCPNCIEYFTSQGLQSIYHLQNLTIEDLGALKEPEQYRMTIWRGLQDLK [I47E]: -1.06 ± 0.11. As for YHADPSLVSFLTGLGCPNCIEYFTSQGLQSIYHLQNLTIEDLGALKGPEQYRMTIWRGLQDLK [I47G], the abundance fitness is -0.913 ± 0.053. Next, YHADPSLVSFLTGLGCPNCIEYFTSQGLQSIYHLQNLTIEDLGALKFPEQYRMTIWRGLQDLK [I47F]: -0.263 ± 0.068. For YHADPSLVSFLTGLGCPNCIEYFTSQGLQSIYHLQNLTIEDLGALKNPEQYRMTIWRGLQDLK [I47N], the abundance fitness was -0.413 ± 0.15. With YHADPSLVSFLTGLGCPNCIEYFTSQGLQSIYHLQNLTIEDLGALKLPEQYRMTIWRGLQDLK [I47L], the abundance fitness was 0.021 ± 0.033. As for YHADPSLVSFLTGLGCPNCIEYFTSQGLQSIYHLQNLTIEDLGALKDPEQYRMTIWRGLQDLK [I47D], the abundance fitness is -0.477 ± 0.13. With YHADPSLVSFLTGLGCPNCIEYFTSQGLQSIYHLQNLTIEDLGALKAPEQYRMTIWRGLQDLK [I47A], the abundance fitness was -0.768 ± 0.075. Turning to YHADPSLVSFLTGLGCPNCIEYFTSQGLQSIYHLQNLTIEDLGALKCPEQYRMTIWRGLQDLK [I47C], the abundance fitness was -0.171 ± 0.034. YHADPSLVSFLTGLGCPNCIEYFTSQGLQSIYHLQNLTIEDLGALKKPEQYRMTIWRGLQDLK [I47K]: the abundance fitness was -0.929 ± 0.17.
